Data from article PMC12152739.

Test system: CC(C)(O/N=C(\C(=O)N[C@@H]1C(=O)N2C(C(=O)[O-])=C(C[N+]3(CCNC(=O)c4ccc(O)c(O)c4Cl)CCCC3)CS[C@H]12)c1csc(N)n1)C(=O)O
Assay: purified protein, by the assay type
Conditions: other: FDC hydrolysis by VIM-2, 30 °C, pH 7.5

Question: How did the kcat turn out when VIM-2 (Escherichia coli) was run?
Answer: The kcat was 1.1 ± 0.14 s⁻¹.
